Patent US20180155451A1 (published 2018)

T1: FcγRIIb extracellular domain with C-terminal His tag (human, UniProt P31994 43-217)
T1 construct: extracellular domain; Soluble receptor expressed in FreeStyle293 cells and used as analyte in Biacore; also called FcgRIIb; 2b; not shown: His tag at the C terminus
T1 sequence (looked up): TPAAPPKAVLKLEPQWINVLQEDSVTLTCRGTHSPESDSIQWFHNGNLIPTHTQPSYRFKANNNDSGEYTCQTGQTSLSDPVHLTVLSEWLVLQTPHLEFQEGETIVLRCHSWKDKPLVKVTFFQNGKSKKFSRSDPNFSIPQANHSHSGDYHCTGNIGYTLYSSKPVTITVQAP

T2: FcγRIIa R (FcγRIIa, allotype R: Arg at position 131) extracellular domain with C-terminal His tag (human, UniProt P12318 34-217)
T2 construct: extracellular domain; also called FcgRIIa R; 2aR; not shown: His tag at the C terminus
T2 sequence (looked up): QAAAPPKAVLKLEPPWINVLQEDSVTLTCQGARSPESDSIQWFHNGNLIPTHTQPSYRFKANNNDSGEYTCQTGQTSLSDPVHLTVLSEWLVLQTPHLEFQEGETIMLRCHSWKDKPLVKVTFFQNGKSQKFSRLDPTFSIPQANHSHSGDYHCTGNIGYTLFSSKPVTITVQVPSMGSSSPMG

T3: FcγRIIb extracellular domain with C-terminal His tag (human, UniProt P31994 43-217)
T3 construct: extracellular domain; also called FcgRIIb; 2b; not shown: His tag at the C terminus
T3 sequence (looked up): T1 sequence (looked up)

T4: FcγRIIb extracellular domain with C-terminal His tag (human, UniProt P31994 43-217)
T4 construct: extracellular domain; Expressed in FreeStyle293 cells; analyte in the Biacore assay; also called FcgRIIb; 2b; not shown: His tag at the C terminus
T4 sequence (looked up): T1 sequence (looked up)

B1: heterodimerized antibody GpH7-A5/GpH7-B3 variant I336_01G/GpL16-k0 (antibody, human IgG1, kappa)
heavy 1: not shown
heavy 2: not shown
light: DIVMTQSPLSLPVTPGEPASISCQASESLVHSNRNTYLHWYLQKPGQSPQLLIYKVSNRFSGVPDRFSGSGSGTDFTLKISRVEAEDVGVYYCSQNTHVPPTFGQGTKVEIERTVAAPSVFIFPPSDEQLKSGTASVVCLLNNFYPREAKVQWKVDNALQSGNSQESVTEQDSKDSTYSLSSTLTLSKADYEKHKVYACEVTHQGLSSPVTKSFNRGEC
notes: Substitution in only one H chain (GpH7-B3 side); also called He Ab
B2: GpH7-A5/GpH7-B3 variant G236_02A/GpL16-k0 (antibody, human IgG1, kappa)
heavy 1: not shown
heavy 2: not shown
light: B1 light
notes: He Ab: alteration in the GpH7-B3 H chain only; also called He Ab
B3: GpH7-A5/GpH7-B3 variant L235_12R/GpL16-k0 (antibody, human IgG1, kappa)
heavy 1: not shown
heavy 2: not shown
light: B1 light
notes: as for B2
B4: GpH7-A5/GpH7-B3 variant G236_03V/GpL16-k0 (antibody, human IgG1, kappa)
heavy 1: not shown
heavy 2: not shown
light: B1 light
notes: as for B2
B5: GpH7-A5/GpH7-B3 variant G237_11K/GpL16-k0 (antibody, human IgG1, kappa)
heavy 1: not shown
heavy 2: not shown
light: B1 light
notes: as for B2
B6: GpH7-A5/GpH7-B3 variant G237_12R/GpL16-k0 (antibody, human IgG1, kappa)
heavy 1: not shown
heavy 2: not shown
light: B1 light
notes: as for B2
B7: GpH7-A5/GpH7-B3 variant Y300_02A/GpL16-k0 (He Ab) (antibody, human IgG1, kappa)
heavy 1: not shown
heavy 2: not shown
light: B1 light
notes: Heterodimerized anti-glypican-3 IgG1; the mutation stands in the GpH7-B3 chain only
B8: GpH7-A5/GpH7-B3 variant Y300_09D/GpL16-k0 (He Ab) (antibody, human IgG1, kappa)
heavy 1: not shown
heavy 2: not shown
light: B1 light
notes: as for B7
B9: GpH7-A5/GpH7-B3 variant Y300_07I/GpL16-k0 (He Ab) (antibody, human IgG1, kappa)
heavy 1: not shown
heavy 2: not shown
light: B1 light
notes: as for B7
B10: GpH7-A5/GpH7-B3 variant Y300_08L/GpL16-k0 (He Ab) (antibody, human IgG1, kappa)
heavy 1: not shown
heavy 2: not shown
light: B1 light
notes: as for B7
B11: GpH7-A5/GpH7-B3 variant Y300_11K/GpL16-k0 (He Ab) (antibody, human IgG1, kappa)
heavy 1: not shown
heavy 2: not shown
light: B1 light
notes: as for B7
B12: GpH7-A5/GpH7-B3 variant Y300_16H/GpL16-k0 (He Ab) (antibody, human IgG1, kappa)
heavy 1: not shown
heavy 2: not shown
light: B1 light
notes: as for B7
B13: GpH7-A5/GpH7-B3 variant Y300_03V/GpL16-k0 (He Ab) (antibody, human IgG1, kappa)
heavy 1: not shown
heavy 2: not shown
light: B1 light
notes: as for B7
B14: GpH7-A5/GpH7-B3 variant Y300_14T/GpL16-k0 (He Ab) (antibody, human IgG1, kappa)
heavy 1: not shown
heavy 2: not shown
light: B1 light
notes: as for B7
B15: GpH7-A5/GpH7-B3 variant Y300_20W/GpL16-k0 (He Ab) (antibody, human IgG1, kappa)
heavy 1: not shown
heavy 2: not shown
light: B1 light
notes: as for B7
B16: GpH7-A5/GpH7-B3 variant Y300_06M/GpL16-k0 (He Ab) (antibody, human IgG1, kappa)
heavy 1: not shown
heavy 2: not shown
light: B1 light
notes: as for B7
B17: GpH7-A5/GpH7-B3 variant Y300_12R/GpL16-k0 (He Ab) (antibody, human IgG1, kappa)
heavy 1: not shown
heavy 2: not shown
light: B1 light
notes: as for B7
B18: GpH7-A5/GpH7-B3 variant Y300_13S/GpL16-k0 (He Ab) (antibody, human IgG1, kappa)
heavy 1: not shown
heavy 2: not shown
light: B1 light
notes: as for B7

molecular target: T5, FcγRIa extracellular domain with C-terminal His tag (human, UniProt P12314 16-292); assay: SPR Biacore, relative binding amount
T5 construct: extracellular domain; Soluble receptor expressed in FreeStyle293 cells and used as analyte in Biacore; also called FcgRI; 1a; not shown: His tag at the C terminus
T5 sequence (P12314 16-292): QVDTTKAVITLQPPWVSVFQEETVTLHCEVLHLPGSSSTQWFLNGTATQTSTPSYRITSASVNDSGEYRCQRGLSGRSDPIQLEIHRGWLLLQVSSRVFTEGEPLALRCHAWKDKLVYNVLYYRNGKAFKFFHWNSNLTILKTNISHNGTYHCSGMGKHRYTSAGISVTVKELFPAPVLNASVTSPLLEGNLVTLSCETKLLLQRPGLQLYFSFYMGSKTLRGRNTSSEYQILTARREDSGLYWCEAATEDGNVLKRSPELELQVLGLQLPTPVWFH

Row | He/Con_1a | Binder
1 | 109 % of GpH7-A5/GpH7-B3/GpL16-k0 (=100) | B1

molecular target: T1, FcγRIIb extracellular domain with …; assay: SPR Biacore, relative binding amount

Row | He/Con_2b | Binder
2 | 90.1 % of GpH7-A5/GpH7-B3/GpL16-k0 (=100) | B1

molecular target: T2, FcγRIIa R (FcγRIIa, allotype R: Arg at …); assay: ratio He/Con_2aR : He/Con_2b (FcgRIIa R over FcgRIIb), SPR Biacore
Method: (§1) The heterodimerized antibodies He Abs in which one of the H chains was introduced with an alteration were assayed for their binding activities to each activating FcγR and inhibitory FcγR according to the method described in Example 4. […] The activating FcγRs in FIGS. 26, 27, 28, and 29 are FcγRIa, FcγRIIa (R), FcγRIIa (H), and FcγRIIIa, respectively.
(§2) Analysis of interaction between objective antibody and the FcγR was carried out using Biacore T100 (GE Healthcare). HBS-EP+ (GE Healthcare) was used as the running buffer, and the measurement temperature was set to 25° C. Chips produced by immobilizing the antigen peptide by the amine coupling method to a Series S Sencor Chip CM5 (GE Healthcare), or alternatively, chips produced by allowing preliminarily biotinylated antigen peptides to interact with and immobilize onto a Series S Sensor Chip SA (certified) (GE Healthcare) were used. Antibodies of interest were captured onto an antigen peptide-immobilized chip, and allowed to interact to each FcγR diluted with running buffer. To regenerate and repeatedly use the chip, the antibodies captured on the chip were washed off by reacting 10 mM glycine-HCl, pH 1.5.

Row | He_2aR/2b (IIaR/IIb) | Binder
3 | 1.51 | B2
4 | 1.69 | B3
5 | 2.6 | B4
6 | 1.9 | B5
7 | 2.47 | B6

molecular target: T2, FcγRIIa R (FcγRIIa, allotype R: Arg at …); assay: SPR Biacore, antibody captured, FcgR analyte; vs HeCon Ab GpH7-A5/GpH7-B3/GpL16-k0 = 100
Method: as §1, §2

Row | He/Con_2aR [control = 100] | Binder
8 | 146 | B2
9 | 16.2 | B3
10 | 91.6 | B4
11 | 17.1 | B5
12 | 24.2 | B6

molecular target: T3, FcγRIIb extracellular domain with …; assay: as above
Method: as §1, §2

Row | He/Con_2b [control = 100] | Binder
13 | 96.5 | B2
14 | 35.3 | B4

molecular target: T6, FcγRIa extracellular domain with C-terminal His tag (human, UniProt P12314 16-292); assay: SPR (Biacore), antibody captured on antigen-peptide chip, FcγR as analyte; relative binding
T6 construct: extracellular domain; Expressed in FreeStyle293 cells; analyte in the Biacore assay; also called FcgRI; 1a; not shown: His tag at the C terminus
T6 sequence (P12314 16-292): as above

Row | He/Con_1a | Binder
15 | 112 % of GpH7-A5/GpH7-B3/GpL16-k0 (=100) | B7
16 | 112 % of GpH7-A5/GpH7-B3/GpL16-k0 (=100) | B8
17 | 108 % of GpH7-A5/GpH7-B3/GpL16-k0 (=100) | B9
18 | 113 % of GpH7-A5/GpH7-B3/GpL16-k0 (=100) | B10
19 | 107 % of GpH7-A5/GpH7-B3/GpL16-k0 (=100) | B11
20 | 111 % of GpH7-A5/GpH7-B3/GpL16-k0 (=100) | B12
21 | 117 % of GpH7-A5/GpH7-B3/GpL16-k0 (=100) | B13
22 | 112 % of GpH7-A5/GpH7-B3/GpL16-k0 (=100) | B14
23 | 112 % of GpH7-A5/GpH7-B3/GpL16-k0 (=100) | B15
24 | 112 % of GpH7-A5/GpH7-B3/GpL16-k0 (=100) | B16
25 | 105 % of GpH7-A5/GpH7-B3/GpL16-k0 (=100) | B17
26 | 111 % of GpH7-A5/GpH7-B3/GpL16-k0 (=100) | B18

molecular target: T4, FcγRIIb extracellular domain with …; assay: as above

Row | He/Con_2b | Binder
27 | 69.2 % of GpH7-A5/GpH7-B3/GpL16-k0 (=100) | B7
28 | 93.2 % of GpH7-A5/GpH7-B3/GpL16-k0 (=100) | B8
29 | 74.5 % of GpH7-A5/GpH7-B3/GpL16-k0 (=100) | B9
30 | 73.6 % of GpH7-A5/GpH7-B3/GpL16-k0 (=100) | B10
31 | 51.6 % of GpH7-A5/GpH7-B3/GpL16-k0 (=100) | B11
32 | 87 % of GpH7-A5/GpH7-B3/GpL16-k0 (=100) | B12
33 | 73.9 % of GpH7-A5/GpH7-B3/GpL16-k0 (=100) | B13
34 | 55.6 % of GpH7-A5/GpH7-B3/GpL16-k0 (=100) | B14
35 | 84.1 % of GpH7-A5/GpH7-B3/GpL16-k0 (=100) | B15
36 | 84.3 % of GpH7-A5/GpH7-B3/GpL16-k0 (=100) | B16
37 | 41.2 % of GpH7-A5/GpH7-B3/GpL16-k0 (=100) | B17
38 | 53.9 % of GpH7-A5/GpH7-B3/GpL16-k0 (=100) | B18
